From US5466669A, “Immunostimulatory agent” (Morinaga Milk Industry Co., Ltd., priority 1993, dated 1995)

Key:
Assay type in all cases: cell-based
[1] = test system: human polymorphonuclear neutrophils; experiment: Test 3: leukotriene release from human polymorphonuclear neutrophils induced by calcium ionophore A23187; details: for Leukotriene released (ng) B4 / Leukotriene released (ng) C4 / Leukotriene released (ng) 20-COOH / Leukotriene released (ng) 20-OH: A23187 5 μM; for Leukotriene released (ng) B4: saline control 12; for Leukotriene released (ng) C4: saline control 18; for Leukotriene released (ng) 20-COOH: saline control 31; for Leukotriene released (ng) 20-OH: saline control 55; for Leukotriene released (ng) (Total B4): sum of B4, 20-OH and 20-COOH, saline control 98; for activity to promote the release of leukotriene B4 from polymorphonuclear neutrophils (in words): 1 to 100 ppm
Method: This test was performed to study the activity of the peptide of the present invention to promote the release of leukotriene B4 from human polymorphonuclear neutrophils induced by the calcium ionophore A23187.
Human polymorphonuclear neutrophils were prepared by fractionation of leukocytes from heparinized blood of healthy donors on a Ficoll-metrizoategradient followed by dextran sedimentation. The cells were centrifuged at 300×g, and washed three times with phosphate-buffered saline, after which less than 2% of the platelets remained. Erythrocytes were removed by exposing the cells to hypotonic conditions. The purity of the polymorphonuclear neutrophil fraction used was greater than 97% as confirmed by light microscopy.
For analysis of leukotriene release, human neutrophils suspended in phosphate-buffered saline at approximately 1×10^7 cells per ml were used as the target cells. The cells were incubated for 30 min in the presence of test substance [(purified peptide obtained by the method as in Example 1, or human lactoferrin (Sigma Chemical Co.), or bovine lactoferrin (Morinaga Milk Industry Co.)]. Leukotriene release from the neutrophils was then induced by the addition of calcium ionophore A23187 (Sigma chemical Co.) at a final concentration of 5 μM. After 30 min, the supernatants of the stimulated cells were deproteinized by addition of 2 ml of methanol-acetonitrile (1:1) overlaid with nitrogen and frozen for 12 h at -70° C. After centrifugation at 1000×g for 15 min the supernatant was evaporated to dryness in a freeze dryer, suspended in 0.5 ml of methanol-water (30:70), overlaid with nitrogen, and stored overnight at -70° C. The samples were centrifuged at 1000×g and the supernatant was assayed for the presence of leukotrienes by high pressure liquid chromatography using a reverse-phase column of Nucleosil (C18; 5 μm particles) at a column temperature of 40° C. The solvent system was a mixture of phosphate buffer (17 mM K2 HPO4 containing 0.05% EDTA), acetonitrile, and methanol (50:30:20) adjusted to pH 5.0 with phosphoric acid. The absorbance at 280 nm of the column effluent was monitored and recorded. The concentration of each eluted leukotriene was determined from the peak area by means of a computing integrator. The leukotrienes were identified from their retention times with reference to known standards. The minimum detectable quantity was 1 ng in each instance.

[2] = test system: rat peritoneal mast cells; experiment: Test 1: histamine release from rat peritoneal mast cells induced by calcium ionophore A23187; details: for Histamine release (Relative %): A23187 5 μM, control (saline) = 100; for activity to promote the release of histamine from mast cells induced by A23187 (in words): 1 to 100 ppm
Method: This test was performed to study the activity of the peptide of the present invention to promote the release of histamine from rat peritoneal mast cells induced by the calcium ionophore A23187.
Peritoneal cells were collected from Wistar rats after intraperitoneal injection of phosphate-buffered saline (consisting of 120 mM NaCl, 10 mM Na2 PO4, 3 mM KH2 PO4, pH 7.4). Their abdoments were massaged and the buffer containing the cells was recovered. The cells were centrifuged at 300×g for 15 min and washed twice with phosphate-buffered saline. The cells from several rats were pooled for use in the experiments.
Rat peritoneal cells containing about 1×10^5 mast cells per ml were used as the target cells. A 500 μl volume of the cell suspension was incubated with 100 μl volume of the test substance [purified peptide obtained by the method as in Example 1, or human lactoferrin (Sigma Chemical Co.), or bovine lactoferrin (Morinaga Milk industry Co.)] at 37° C. for 3O min. Thereafter, histamine release from the mast cells was induced by the addition of calcium ionophore A23187 (Sigma Chemical Co.) at a final concentration of 5 μM. After 10 min of incubation the cells were centrifuged at 300×g for 15 min and the supernatant was removed and deproteinized by the addition of 2 ml of HClO4 (2%). The deproteinized sample was then centrifuged at 2000×g for 20 min and the histamine content in the supernatant was determined by the fluorophotometric analyser technique (AutoAnalyzer: Technikon). Cells in the presence of phosphate-buffered saline served as control.

[3] = test system: rat peritoneal mast cells; experiment: Test 2: histamine release from rat peritoneal mast cells induced by α-toxin-producing Staphylococcus aureus cells; details: for Histamine release (Relative %): S. aureus 121 about 1.0×10^8 cells per ml, control (saline) = 100; for activity to promote the release of histamine from mast cells induced by α-toxin-producing Staphylococcus aureus cells (in words): 1 to 100 ppm
Method: This test was performed to study the activity of the peptide of the present invention to promote the release of histamine from rat peritoneal mast cells induced by α-toxin-producing Staphylococcus aureus cells.
Staphylococcus aureus 121, an α-toxin-producing strain, was cultured overnight in Brain Heart Infusion broth at 37° C. The bacterial cells were collected by centrifugation at 4000×g for 20 min, washed with phosphate-buffered saline, and suspended in the same buffer for use in the experiment. Rat peritoneal cells were prepared as in Test 1.
The same method as in Test 1 was used, except histamine release from the mast cells was induced by the addition of α-toxin-producing Staphylococcus aureus cells at a final concentration of about 1.0×10^8 cells per ml.

B1: lactoferrin, bovine: bovine lactoferrin (Morinaga Milk industry Co.) (protein, UniProt P24627 20-708, looked up)
Lactotransferrin: APRKNVRWCTISQPEWFKCRRWQWRMKKLGAPSITCVRRAFALECIRAIAEKKADAVTLDGGMVFEAGRDPYKLRPVAAEIYGTKESPQTHYYAVAVVKKGSNFQLDQLQGRKSCHTGLGRSAGWIIPMGILRPYLSWTESLEPLQGAVAKFFSASCVPCIDRQAYPNLCQLCKGEGENQCACSSREPYFGYSGAFKCLQDGAGDVAFVKETTVFENLPEKADRDQYELLCLNNSRAPVDAFKECHLAQVPSHAVVARSVDGKEDLIWKLLSKAQEKFGKNKSRSFQLFGSPPGQRDLLFKDSALGFLRIPSKVDSALYLGSRYLTTLKNLRETAEEVKARYTRVVWCAVGPEEQKKCQQWSQQSGQNVTCATASTTDDCIVLVLKGEADALNLDGGYIYTAGKCGLVPVLAENRKSSKHSSLDCVLRPTEGYLAVAVVKKANEGLTWNSLKDKKSCHTAVDRTAGWNIPMGLIVNQTGSCAFDEFFSQSCAPGADPKSRLCALCAGDDQGLDKCVPNSKEKYYGYTGAFRCLAEDVGDVAFVKNDTVWENTNGESTADWAKNLNREDFRLLCLDGTRKPVTEAQSCHLAVAPNHAVVSRSDRAAHVKQVLLHQQALFGKNGKNCPDKFCLFKSETKNLLFNDNTECLAKLGGRPTYEEYLGTEYVTAIANLKKCSTSPLLEACAFLTR
B1 was tested, and the “Leukotriene released (ng) B4” value ([1]; 1 ppm test substance) was 9 ng, the “Leukotriene released (ng) C4” value ([1]; 1 ppm test substance) was 17 ng and the “Leukotriene released (ng) 20-COOH” value ([1]; 1 ppm test substance) was 41 ng. The “Leukotriene released (ng) 20-OH” value ([1]; 1 ppm test substance) was 50 ng, the “Leukotriene released (ng) (Total B4)” value ([1]; 1 ppm test substance) was 100 ng and the “activity to promote the release of leukotriene B4 from polymorphonuclear neutrophils (in words)” value [1] was “little, if any, such activity”. The “Leukotriene released (ng) B4” value ([1]; 10 ppm test substance) was 11 ng, the “Leukotriene released (ng) C4” value ([1]; 10 ppm test substance) was 15 ng and the “Leukotriene released (ng) 20-COOH” value ([1]; 10 ppm test substance) was 36 ng. The “Leukotriene released (ng) 20-OH” value ([1]; 10 ppm test substance) was 60 ng, the “Leukotriene released (ng) (Total B4)” value ([1]; 10 ppm test substance) was 107 ng and the “Leukotriene released (ng) B4” value ([1]; 100 ppm test substance) was 11 ng. For the same molecule, the “Leukotriene released (ng) C4” value ([1]; 100 ppm test substance) was 15 ng, the “Leukotriene released (ng) 20-COOH” value ([1]; 100 ppm test substance) was 35 ng and the “Leukotriene released (ng) 20-OH” value ([1]; 100 ppm test substance) was 59 ng. The “Leukotriene released (ng) (Total B4)” value ([1]; 100 ppm test substance) was 105 ng, the “Histamine release (Relative %)” value ([2]; 1 ppm test substance) was 105 ± 25 Relative % and the “activity to promote the release of histamine from mast cells induced by A23187 (in words)” value [2] was “little, if any, such activity”. For the same molecule, the “Histamine release (Relative %)” value ([2]; 10 ppm test substance) was 110 ± 20 Relative %, the “Histamine release (Relative %)” value ([2]; 100 ppm test substance) was 125 ± 25 Relative % and the “Histamine release (Relative %)” value ([3]; 1 ppm test substance) was 150 ± 10 Relative %. The “activity to promote the release of histamine from mast cells induced by α-toxin-producing Staphylococcus aureus cells (in words)” value [3] was “little, if any, such activity”, the “Histamine release (Relative %)” value ([3]; 10 ppm test substance) was 160 ± 10 Relative % and the “Histamine release (Relative %)” value ([3]; 100 ppm test substance) was 110 ± 15 Relative %.

B2: lactoferrin, human: human lactoferrin (Sigma Chemical Co.) (protein, UniProt P02788 20-710, looked up)
Lactotransferrin: GRRRSVQWCAVSQPEATKCFQWQRNMRKVRGPPVSCIKRDSPIQCIQAIAENRADAVTLDGGFIYEAGLAPYKLRPVAAEVYGTERQPRTHYYAVAVVKKGGSFQLNELQGLKSCHTGLRRTAGWNVPIGTLRPFLNWTGPPEPIEAAVARFFSASCVPGADKGQFPNLCRLCAGTGENKCAFSSQEPYFSYSGAFKCLRDGAGDVAFIRESTVFEDLSDEAERDEYELLCPDNTRKPVDKFKDCHLARVPSHAVVARSVNGKEDAIWNLLRQAQEKFGKDKSPKFQLFGSPSGQKDLLFKDSAIGFSRVPPRIDSGLYLGSGYFTAIQNLRKSEEEVAARRARVVWCAVGEQELRKCNQWSGLSEGSVTCSSASTTEDCIALVLKGEADAMSLDGGYVYTAGKCGLVPVLAENYKSQQSSDPDPNCVDRPVEGYLAVAVVRRSDTSLTWNSVKGKKSCHTAVDRTAGWNIPMGLLFNQTGSCKFDEYFSQSCAPGSDPRSNLCALCIGDEQGENKCVPNSNERYYGYTGAFRCLAENAGDVAFVKDVTVLQNTDGNNNEAWAKDLKLADFALLCLDGKRKPVTEARSCHLAMAPNHAVVSRMDKVERLKQVLLHQQAKFGRNGSDCPDKFCLFQSETKNLLFNDNTECLARLHGKTTYEKYLGPQYVAGITNLKKCSTSPLLEACEFLRK
For B2, the “Leukotriene released (ng) B4” value ([1]; 1 ppm test substance) was 11 ng, the “Leukotriene released (ng) C4” value ([1]; 1 ppm test substance) was 12 ng and the “Leukotriene released (ng) 20-COOH” value ([1]; 1 ppm test substance) was 41 ng. For the same molecule, the “Leukotriene released (ng) 20-OH” value ([1]; 1 ppm test substance) was 80 ng, the “Leukotriene released (ng) (Total B4)” value ([1]; 1 ppm test substance) was 131 ng and the “activity to promote the release of leukotriene B4 from polymorphonuclear neutrophils (in words)” value [1] was “little, if any, such activity”. For the same molecule, the “Leukotriene released (ng) B4” value ([1]; 10 ppm test substance) was 10 ng, the “Leukotriene released (ng) C4” value ([1]; 10 ppm test substance) was 13 ng and the “Leukotriene released (ng) 20-COOH” value ([1]; 10 ppm test substance) was 26 ng. The “Leukotriene released (ng) 20-OH” value ([1]; 10 ppm test substance) was 50 ng, the “Leukotriene released (ng) (Total B4)” value ([1]; 10 ppm test substance) was 86 ng and the “Leukotriene released (ng) B4” value ([1]; 100 ppm test substance) was 10 ng. For the same molecule, the “Leukotriene released (ng) C4” value ([1]; 100 ppm test substance) was 17 ng, the “Leukotriene released (ng) 20-COOH” value ([1]; 100 ppm test substance) was 26 ng and the “Leukotriene released (ng) 20-OH” value ([1]; 100 ppm test substance) was 42 ng. For the same molecule, the “Leukotriene released (ng) (Total B4)” value ([1]; 100 ppm test substance) was 76 ng, the “Histamine release (Relative %)” value ([2]; 1 ppm test substance) was 115 ± 20 Relative % and the “activity to promote the release of histamine from mast cells induced by A23187 (in words)” value [2] was “little, if any, such activity”. The “Histamine release (Relative %)” value ([2]; 10 ppm test substance) was 110 ± 10 Relative %, the “Histamine release (Relative %)” value ([2]; 100 ppm test substance) was 100 ± 10 Relative % and the “Histamine release (Relative %)” value ([3]; 1 ppm test substance) was 180 ± 5 Relative %. For the same molecule, the “activity to promote the release of histamine from mast cells induced by α-toxin-producing Staphylococcus aureus cells (in words)” value [3] was “little, if any, such activity”, the “Histamine release (Relative %)” value ([3]; 10 ppm test substance) was 115 ± 15 Relative % and the “Histamine release (Relative %)” value ([3]; 100 ppm test substance) was 120 ± 20 Relative %.
